{
  "source": "patent US9265777B2",
  "about": "“Antiparasitic agent for fish and method of controlling proliferation of fish parasites” (NIPPON SUISAN KAISHA, LTD., priority 2009, dated 2016)",
  "origin": "cited, not measured here",
  "tested_on": "White spot disease",
  "conditions": "40 mg per 1 kg of fish body weight orally per day, 28-day experimental period",
  "data": [
    {"molecule": "lactoferrin: marketed as an additive for fisheries (protein, UniProt P24627 20-708, looked up) Lactotransferrin: APRKNVRWCTISQPEWFKCRRWQWRMKKLGAPSITCVRRAFALECIRAIAEKKADAVTLDGGMVFEAGRDPYKLRPVAAEIYGTKESPQTHYYAVAVVKKGSNFQLDQLQGRKSCHTGLGRSAGWIIPMGILRPYLSWTESLEPLQGAVAKFFSASCVPCIDRQAYPNLCQLCKGEGENQCACSSREPYFGYSGAFKCLQDGAGDVAFVKETTVFENLPEKADRDQYELLCLNNSRAPVDAFKECHLAQVPSHAVVARSVDGKEDLIWKLLSKAQEKFGKNKSRSFQLFGSPPGQRDLLFKDSALGFLRIPSKVDSALYLGSRYLTTLKNLRETAEEVKARYTRVVWCAVGPEEQKKCQQWSQQSGQNVTCATASTTDDCIVLVLKGEADALNLDGGYIYTAGKCGLVPVLAENRKSSKHSSLDCVLRPTEGYLAVAVVKKANEGLTWNSLKDKKSCHTAVDRTAGWNIPMGLIVNQTGSCAFDEFFSQSCAPGADPKSRLCALCAGDDQGLDKCVPNSKEKYYGYTGAFRCLAEDVGDVAFVKNDTVWENTNGESTADWAKNLNREDFRLLCLDGTRKPVTEAQSCHLAVAPNHAVVSRSDRAAHVKQVLLHQQALFGKNGKNCPDKFCLFKSETKNLLFNDNTECLAKLGGRPTYEEYLGTEYVTAIANLKKCSTSPLLEACAFLTR", "values": [
      {"measurement": "infection during experimental period", "result": "no infection was observed"}
    ]}
  ]
}
